This assay concerns the target human CD3 (human) (UniProt P07766). Description: flow cytometry, serially diluted antibody on Jurkat cells, PE goat anti-mouse IgG. Background: A flow cytometer gives signals particle by particle.

The results in this text go back to US20120329995A1.

human CD3 (human), sequence (P07766 23-207): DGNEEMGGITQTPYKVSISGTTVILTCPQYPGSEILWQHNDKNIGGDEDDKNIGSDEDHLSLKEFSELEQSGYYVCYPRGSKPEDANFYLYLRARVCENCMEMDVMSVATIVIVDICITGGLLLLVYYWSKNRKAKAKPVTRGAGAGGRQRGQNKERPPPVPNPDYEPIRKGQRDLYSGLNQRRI

The substance “OKT3 antibody (mouse anti-human CD3, recombinant, made in 293T cells from pME-wtOKT3 HC and pME-wtOKT3 LC)” displayed an antibody concentration giving comparable binding of 0.4 ng/mL.
